Assay results: patent publication US12012457 (SYNTHEKINE, dated 2024)

Biological target: T1, extracellular domain of human IL23R (hIL23R ECD) (human, UniProt Q5VWK5 24-355)
T1 construct: also called hIL-23 ECD antigen
T1 sequence: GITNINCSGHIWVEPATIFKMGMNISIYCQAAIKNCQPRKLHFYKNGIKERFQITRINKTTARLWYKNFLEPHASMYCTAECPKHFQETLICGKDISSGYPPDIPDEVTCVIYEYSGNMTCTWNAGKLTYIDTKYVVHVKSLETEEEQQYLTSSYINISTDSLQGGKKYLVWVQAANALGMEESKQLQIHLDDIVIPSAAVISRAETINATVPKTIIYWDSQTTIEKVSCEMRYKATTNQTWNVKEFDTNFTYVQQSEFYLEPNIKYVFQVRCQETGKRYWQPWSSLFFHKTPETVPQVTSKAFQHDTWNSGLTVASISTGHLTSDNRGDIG
Assay: periplasmic extract ELISA (PE-ELISA), 96-well plate, colorimetric

B1: hIL23R VHH9 (VHH)
VHH: QVQLQESGGGLVQAGGSLRLSCAASGYTYCSYDMSWYRQAPGKERKFVSSINSDGTTSYADSVKGRFTISQDNAKNTVYLQMNSLKPEDTAMYYCKTDPQTRPGKPCADYWGQGTQVTVSS
- binding result: binds
